US6492344B1, “Syndecan enhancer element and syndecan stimulation of cellular differentiation” (Biotie Therapies Corp., priority 1993, dated 2002)
Entries after “also recorded” stand apart in the source; their conditions may differ.

How the values were obtained:
[1] = test system: FGF-inducible Response Element (FiRE); experiment: FiRE / Syn Prom CAT reporter in MCA3D keratinocytes; assay type: cell-based; settings: MCA3D mouse keratinocytes transfected with FiRE construct
Experimental: The cells used for proximal promoter constructs were 3T3 NIH, S115 (either hormone-treated or not) and nMuMG cells. For enhancer constructs we used 3T3 NIH cells grown in 2% CMS medium and MCA 3D cells grown in Ham's medium. 3T3 NIH cells were also used to test the effect of growth factors in 2% CMS medium with 10 ng/ml FGF-2 and 2ng/ml TGFβ-1. MCA 3D cells were used to test the effect of 10 ng/ml KGF.
FiRE is Induced Selectively by FGF-7 in Keratinocytes. The ability of FiRE to enhance transcription was tested in the mouse keratinocyte cell line MCA3D (Kuliz-Martin et al., Carcinogenesis 4:1367-1377 (1983)). MCA3D cells were transfected as described supra for mouse NIH3T3 cells. Following transfection, the cells were treated with fetal calf serum, PDGF, FGF-1, FGF-2, and FGF-7 as described supra for the NIH3T3 cells.

3T3NIH cells = experiment: 125-IdU incorporation (DNA synthesis) assay in 3T3NIH cells; assay type: cell-based, mouse; settings: pFiRE transfected 3T3NIH cells; 10 ng/ml growth factor (2 ng/ml TGF-β) or 5% FCS
Text: Effect of Various Growth Factors on Enhancer Activation in NIH3T3 Cells. Plasmid pFiRE was transfected into 3T3NIH cells as described, supra. The cells were starved in DMEM medium supplemented with 5% fetal calf serum to about 70% confluence. Fetal calf serum was then replaced with 2% carboxy-methyl-Sephadex eluted fetal calf serum (CMS) 12 hrs before adding the growth factors. Various growth factors in the same medium, 5% fetal calf serum (FCS) supplemented medium or a control containing the medium, without any added growth factors were incubated with the transfected cells for 2 days, and CAT activity was measured. The effect of 10 ng/ml of FGF-2, FGF-1, FGF-4, FGF-7 (KGF), EGF, IGF1, TGFα, IFNγ, and PDGF and 2 ng/ml TGF-β were tested. The human recombinant growth factors were purchased from Peprotech (FGF-1, -2, and -7), Boehringer (FGF-2) or from Calbiochem (PDGF) TGF-β was purchased from Sigma. The effect of the added growth factors and FCS on DNA synthesis was also tested by a 125-IdU incorporation assay. This cell proliferation assay was carried out by incubating cells for 4-6 hrs with 0.25 μCi/ml 5-[^125I]iodo-2′-deoxyuridine (IdU, Amersham), washed several times with PBS and solubilized in 1 M NaOH. Radioactivity was measured using a gamma counter (Wallac).

syndecan-1 mRNA = experiment: Syndecan-1 mRNA expression in MCA3D keratinocytes; assay type: cell-based; settings: MCA3D mouse keratinocytes
[2] = test system: FGF-inducible Response Element (FiRE); experiment: pFiRE CAT reporter activation by growth factors in 3T3NIH cells; assay type: cell-based, mouse; settings: pFiRE transfected 3T3NIH cells; 10 ng/ml growth factor (2 ng/ml TGF-β) or 5% FCS, 2 days
Experimental: Each of these plasmids was transiently transfected into 3T3NIH cells, using the calcium phosphate precipitation method (Chen and Okayama, Mol. Cell Biol. 7:2745-2752 (1987)) as follows. For transient transfections NIH3T3 cells were plated at equal density on six-well plates (Falcon) two days before transfection. Plasmid DNA was transfected into cells by calcium phosphate method (Chen and Okayama, Mol. Cell Biol. 7:2745-2752 (1987)). A β-galactosidase expressing plasmid (pSV-β-galactosidase, Promega) was co-transfected with CAT constructs to monitor transfection efficiencies. Three parallel transfections were used in every assay. […] CAT activities were measured by liquid scintillation and β-galactosidase activities spectrophotometrically at 420 nm as described by Vihinen et al., J. Biol. Chem 268:17261-17269 (1993)). […]
For the gene expression analysis the fragments of the syndecan-1 upstream region were subcloned from mouse genomic clones into the XbaI site of the pCATProm vector in which a mouse syndecan-1 promoter region (−1310 to +140) was fused to the CAT reporter gene (Vihinen et al., J. Biol. Chem. 271:12532-12541 (1996)). […] These constructs were then used to transient transfect NIH3T3 cells as described supra, and CAT activity was measured.
Effect of Various Growth Factors on Enhancer Activation in NIH3T3 Cells. […] Radioactivity was measured using a gamma counter (Wallac).

Molecule	FiRE activation [1]	DNA synthesis / cell proliferation (125-IdU incorporation) (3T3NIH cells)	syndecan-1 mRNA expression (syndecan-1 mRNA)	FiRE enhancer activation (CAT reporter activity) [2]
FGF-7: Keratinocyte growth factor (FGF-7 or KGF) (protein, UniProt P21781 32-194, looked up) Fibroblast growth factor 7: CNDMTPEQMATNVNCSSPERHTRSYDYMEGGDIRVRRLFCRTQWYLRIDKRGKVKGTQEMKNNYNIMEIRTVAVGIVAIKGVESEFYLAMNKEGKLYAKKECNEDCNFKELILENHYNTYASAKWTHNGGEMFVALNQKGIPVRGKKTKKEQKTAHFLPMAIT	strongly activated FiRE	significant increase in DNA synthesis	strongly induced	did not activate the enhancer; also recorded: no significant enhancer activation; also recorded: no effect
FGF-4: growth factor, FGF family member (protein, UniProt P08620 31-206, looked up) Fibroblast growth factor 4: APTAPNGTLEAELERRWESLVALSLARLPVAAQPKEAAVQSGAGDYLLGIKRLRRLYCNVGIGFHLQALPDGRIGGAHADTRDSLLELSPVERGVVSIFGVASRFFVAMSSKGKLYGSPFFTDECTFKEILLPNNYNAYESYKYPGMFIALSKNGKTKKGNRVSPTMKVTHFLPRL	–	–	–	lower effect
